Test results: patent US20100322920 (published 2010)
Where “and” joins values, the source holds several entries; their conditions need not be identical. Equal values may be shown once.

Molecular target: T1, human CD30 (TNFRSF8), recombinant (human, UniProt P28908)
T1 chain: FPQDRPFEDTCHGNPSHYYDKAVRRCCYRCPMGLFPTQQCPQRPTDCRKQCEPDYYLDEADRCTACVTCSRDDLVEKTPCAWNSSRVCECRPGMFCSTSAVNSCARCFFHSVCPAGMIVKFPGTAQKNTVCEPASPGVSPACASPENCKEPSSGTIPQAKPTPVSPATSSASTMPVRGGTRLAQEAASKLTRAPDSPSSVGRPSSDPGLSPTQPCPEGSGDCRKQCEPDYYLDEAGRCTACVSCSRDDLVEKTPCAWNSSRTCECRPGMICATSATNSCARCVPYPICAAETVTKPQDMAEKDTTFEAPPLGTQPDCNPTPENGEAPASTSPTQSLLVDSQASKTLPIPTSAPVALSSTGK
Assay: SPR

Kd: 1.12 nM and 1.14 nM and 1.23 nM and 1.36 nM
B1: HuMab 5F11 (antibody, V domains shown)
VH: QVQLQQWGAGLLKPSETLSLTCAVYGGSFSAYYWSWIRQPPGKGLEWIGDINHGGGTNYNPSLKSRVTISVDTSKNQFSLKLNSVTAADTAVYYCASLTAYWGQGSLVTVSS
VL: DIQMTQSPTSLSASVGDRVTITCRASQGISSWLTWYQQKPEKAPKSLIYAASSLQSGVPSRFSGSGSGTDFTLTISSLQPEDFATYYCQQYDSYPITFGQGTRLEIK
